The nature of this data set: self-splicing fitness, log relative to wild type (ln ratio); higher = more splicing; Tetrahymena group I intron in knt gene, E. coli kanamycin selection, DiMSum; sequences stand for … in CUCUCU…GGAGGGAAAAGUUAUCAGGCAUGCACCUGGUAGCUAGUCUUUAAACCAAUAGAUUGCAUCGGUUUAAAAGGCAAGACCGUCAAAUUGCGGGAAAGGGGUCAACAGCCGUUCAGUACCAAGUCUCAGGGGAAACUUUGAGAUGGCCUUGCAAAGGGUAUGGUAAUAAGCUGACGGACAUGGUCCUAACCACGCAGCCAAGUCCUAAGUCAACAGAUCUUCUGUUGAUAUGGAUGCAGUUCACAGACUAAAUGUCGGUCGGGGAAGAUGUAUUCUUCUCAUAAGAUAUAGUCGGACCUCUCCUUAAUGGGAGCUAGCGGAUGAAGUGAUGCAACACUGGAGCCGCUGGGAACUAAUUUGUAUGCGAAAGUAUAUUGAUUAGUUUUGGAGUACUCGUGGUCG
In short, it runs like this: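 Colonies from six replicate transformations of E. coli BL21(DE3) were pooled and amplicon-sequenced on an Illumina HiSeq 2500. The library placed an intron with all eight P1ex-region nucleotides randomised inside the knt kanamycin-resistance gene on pET-22b(+), and cells grew overnight at 37°C or 30°C on LB agar with or without 25 μg/mL kanamycin (plus 100 μg/mL carbenicillin, 50 μM IPTG, 0.2% rhamnose). Fitness is the DiMSum error-weighted combination of wild-type-normalised replicate fold changes, kanamycin versus none.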

± gives the uncertainty stated by the source.

For AGAUAGCAAUAUUACGCUAG, the “self-splicing fitness (ln)” value reads like this: (30 °C) -3.21 ± 0.4; (37 °C) -2.24 ± 0.42.

Regarding CACAAGCAAUAUUACGAAAA, the “self-splicing fitness (ln)” value by setting is: (30 °C) -3.15 ± 0.17; (37 °C) -2.57 ± 0.24.

In the case of UGGUAGCAAUAUUACGCAGU, the “self-splicing fitness (ln)” value by setting is: (30 °C) -3.14 ± 0.4; (37 °C) -2.76 ± 0.4.

As for UGCAAGCAAUAUUACGUGCG, the “self-splicing fitness (ln)” value is -2.86 ± 0.18 (30 °C) and -1.94 ± 0.18 (37 °C).

Consider GGACAGCAAUAUUACGGAAA, for which the “self-splicing fitness (ln)” value was -2.04 ± 0.15 (30 °C) and -1.23 ± 0.14 (37 °C).

Turning to CGACAGCAAUAUUACGAACU, the “self-splicing fitness (ln)” value (30 °C) is -1.16 ± 0.13 and the “self-splicing fitness (ln)” value (37 °C) was -0.845 ± 0.15.

Turning to UAUAAGCAAUAUUACGGUCA, the “self-splicing fitness (ln)” value is -0.385 ± 0.12 (30 °C) and -0.125 ± 0.13 (37 °C).

CAAUAGCAAUAUUACGACCA: where the note is “37 °C”, the “self-splicing fitness (ln)” value was -1.81 ± 0.41.

GCUUAGCAAUAUUACGGUGC: the “self-splicing fitness (ln)” value (30 °C) was -1.98 ± 0.12 and the “self-splicing fitness (ln)” value (37 °C) was -0.681 ± 0.15.

On to AAGGAGCAAUAUUACGCUUU, for which the “self-splicing fitness (ln)” value (30 °C) was -3.83 ± 0.32 and the “self-splicing fitness (ln)” value (37 °C) is -2.93 ± 0.38.

In the case of AAGCAGCAAUAUUACGGUUU, the “self-splicing fitness (ln)” value runs as follows: (30 °C) -2.78 ± 0.12; (37 °C) -0.354 ± 0.096.

Turning to GGUGAGCAAUAUUACGGCUC, the “self-splicing fitness (ln)” value reads like this: (30 °C) -1.94 ± 0.24; (37 °C) -0.104 ± 0.3.

GGAAAGCAAUAUUACGAAGC: the “self-splicing fitness (ln)” value runs as follows: (30 °C) -1.07 ± 0.34; (37 °C) -1.43 ± 0.34.

For the sequence UAAUAGCAAUAUUACGAUCU, the “self-splicing fitness (ln)” value (30 °C) is -1.4 ± 0.098 and the “self-splicing fitness (ln)” value (37 °C) was -0.601 ± 0.12.

As to UGAUAGCAAUAUUACGGUAC, the “self-splicing fitness (ln)” value (37 °C) is -2.12 ± 0.42.

Take GACCAGCAAUAUUACGUAAU: the “self-splicing fitness (ln)” value is -0.385 ± 0.058 (30 °C) and -0.075 ± 0.07 (37 °C).

Regarding GUAAAGCAAUAUUACGACCG, the “self-splicing fitness (ln)” value is -0.799 ± 0.43 (30 °C) and -0.23 ± 0.36 (37 °C).

For the sequence UAUUAGCAAUAUUACGAGGC, the “self-splicing fitness (ln)” value (37 °C) was -0.205 ± 0.23.

As to CAUUAGCAAUAUUACGUCUG, the “self-splicing fitness (ln)” value (30 °C) is -0.197 ± 0.062 and the “self-splicing fitness (ln)” value (37 °C) came out at 0.00612 ± 0.072.

Take CGAUAGCAAUAUUACGACAA: the “self-splicing fitness (ln)” value is -3.4 ± 0.34 (30 °C) and -2.35 ± 0.27 (37 °C).

On to AUCUAGCAAUAUUACGUUGA, for which the “self-splicing fitness (ln)” value runs as follows: (30 °C) -2.53 ± 0.11; (37 °C) -1.7 ± 0.11.

As for AUGGAGCAAUAUUACGAGUC, the “self-splicing fitness (ln)” value (30 °C) was -2.08 ± 0.41.

With ACACAGCAAUAUUACGAAGA, the “self-splicing fitness (ln)” value was -2.48 ± 0.1 (30 °C) and -1.99 ± 0.12 (37 °C).

For the sequence ACUCAGCAAUAUUACGUCGC, the “self-splicing fitness (ln)” value reads like this: (30 °C) -2.57 ± 0.24; (37 °C) -0.332 ± 0.17.

Turning to GUUGAGCAAUAUUACGCGCC, the “self-splicing fitness (ln)” value (30 °C) was -2.97 ± 0.37.

Consider UUAUAGCAAUAUUACGGCAA, for which the “self-splicing fitness (ln)” value reads like this: (30 °C) -0.0783 ± 0.11; (37 °C) -0.348 ± 0.1.

On to AAAGAGCAAUAUUACGCGAG, for which the “self-splicing fitness (ln)” value runs as follows: (30 °C) -1.87 ± 0.12; (37 °C) -1.58 ± 0.13.

For the sequence UGGGAGCAAUAUUACGUUUU, the “self-splicing fitness (ln)” value (30 °C) was -4.43 ± 0.4 and the “self-splicing fitness (ln)” value (37 °C) was -2.51 ± 0.33.

In the case of UUAUAGCAAUAUUACGAGGU, the “self-splicing fitness (ln)” value (37 °C) is -2.14 ± 0.37.

In the case of AUUUAGCAAUAUUACGUGCU, the “self-splicing fitness (ln)” value is, setting by setting: (30 °C) -2.78 ± 0.11; (37 °C) -0.856 ± 0.1.

AGUAAGCAAUAUUACGCUGC: the “self-splicing fitness (ln)” value (30 °C) is -2.97 ± 0.29.

With CACAAGCAAUAUUACGUCAG, the “self-splicing fitness (ln)” value (30 °C) was -1.25 ± 0.051 and the “self-splicing fitness (ln)” value (37 °C) was -0.508 ± 0.064.

On to GCUUAGCAAUAUUACGUCUA, for which the “self-splicing fitness (ln)” value (30 °C) is -1.96 ± 0.26 and the “self-splicing fitness (ln)” value (37 °C) is -0.873 ± 0.2.

With GACCAGCAAUAUUACGAUGC, the “self-splicing fitness (ln)” value was -0.38 ± 0.059 (30 °C) and -0.185 ± 0.072 (37 °C).

Take AGACAGCAAUAUUACGUCCG: the “self-splicing fitness (ln)” value runs as follows: (30 °C) -0.314 ± 0.12; (37 °C) -0.305 ± 0.15.

As to CCCAAGCAAUAUUACGACGA, the “self-splicing fitness (ln)” value runs as follows: (30 °C) -2.93 ± 0.17; (37 °C) -1.49 ± 0.14.

Turning to GUAGAGCAAUAUUACGUGCG, the “self-splicing fitness (ln)” value runs as follows: (30 °C) -1.13 ± 0.081; (37 °C) 0.0284 ± 0.12.

Consider GGACAGCAAUAUUACGCGCA, for which the “self-splicing fitness (ln)” value is, setting by setting: (30 °C) -0.346 ± 0.061; (37 °C) 0.497 ± 0.09.

Take AUACAGCAAUAUUACGAUAU: the “self-splicing fitness (ln)” value runs as follows: (30 °C) -1.45 ± 0.092; (37 °C) -0.42 ± 0.1.

Take CGACAGCAAUAUUACGGAAG: the “self-splicing fitness (ln)” value reads like this: (30 °C) -2.1 ± 0.068; (37 °C) -1.24 ± 0.083.

The record behind these values is the supplement of paper PMC7877785.
